# Assay results published in doi:10.1101/697946.
# Molecular target: LMP7-His, biotinylated (UniProt P28062)
# Test: BLI
substance,measurement,value
Nef-GST (from UniProt P03406 1-206) (natural protein),Kd,735 nM
same,wavelength shift,71.1 pm
